# Test results from the NTF2 design screens of Basanta et al. (2020).
# Assay: protease stability score; higher = more stable; yeast display proteolysis, trypsin and chymotrypsin;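 further: log10 excess protease needed over predicted unfolded state with 0 meaning unfolded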
row,Sequence,protease stability score
1,DEDLDKQAQEFIHAMQEGDPQRLSEQMDPNARFHVGEKNIHGKEEVMRDFQRTVDQAEIEFKEYSVRAEPGRVRIKLHYVDNNDGRPHSKVQDMVIVFHNGKLVVIDVNDSQ,0.236
2,DESQLELVKELLDVLQTGNPDEARQLVDKDVNIRIGDRVIHGREQLQSHVEKVKREQQVHVNITDMKVKGDKIKVVAQYKNHHNGQPSHNKMVLDAEVNGDKIHRMEYKSQS,-0.453
3,DEDVVDEFRRAIESNDFDRLVELADENAKADIGNKTVRGRDEMKDLMTSQKRRVDHLQVTSFSIDGDKLTVRYIANIDGHKIDNVVRFVAHNGKLKHMEVRARSEEQQKTLEKLIG,0.059
4,DEEELRELVRNIIEQLQQNNEEELKKQMDKDARMQYGDKEWHGREDIVRHLASVAHQVDHLELESVSVDGNKAHFTFRRQVNGHDETLRAELVVRNGRVVSIKYRHN,-0.021
5,DEEKLKRIWQEIMDVWRTNNEDRMTNLFDENATVVVGDETYRGREDVNKALHEFNKRVDNINVTRLDVDGDKANLKAELTYNGRTIDITLRITLRNGRIEEMTVDPEVMKTARS,0.71
6,DDNEVETVRELIEQLETGDPDKFKEMVDKDVNINVGNKHVHGREEAVEQIRKEAREISFRIKVDRVEAHNGHVRVDFKFDAEVNGQPRSFRAIMVLEIEDGVVKHIELQMDRNQQQRLEK,1.1
7,DEKDQEQILRELAEIMKSGDEHEMENLADENVKVKIGDKTLKGKEQFRHQLKRERDRVDHLKILDMEAQGDRFIIRWQEEFNGQTRRMQVDIHIKNGKIKSAEYRHQ,0.579
8,DDELQHQVERFLTNIEHGDPDKIQRQVDKDVNARVGDETLHGSDQLKDTWHDTQRQMRFSFHVTKYDAREGHVDITAHITMDRNGKPESRQVRVRFNINNGKLREVDMQLRG,1.04
9,DREDTAREAAHEAIKIWKTGDPEKLKELFDPNVKVKIGDRTVHGREELVRQIRHEREQVDHLSFDLEDYKMDGDQMHVVVRFTANRNGRRTEDKQVYNASFHNGQFRIHEMNKK,-0.356
10,DERKVDVARNVAKAILTNDPDRAMSMVDKDVTVVIGDKEINGHEDFREHIEKQSKEAKLDMRSVDADNRGDKAVLTLDYQIDYNGKPMRDTQTIEVHVTNGRVKELRVRVDESLKRDLKS,-0.28
11,DEKEKAEDFMRKMQKIAKTNNPTELDDQFDEDAKLVVGDKRYHGRKQMQKHYKELRKRVDHFRLEVKRIDVSGDKVRFDAKYEADVNGRRETVDMRFVVRRVGDKDRAENAQWK,0.285
12,DDKQLDERVKEIQEVIRDNDPDSMKHLMDPNARMFVGDKEFHGRDEIVRHLKDLWHRVDHFHIKDFRASGNRAVVIAVFHVNGVTAHFKIFVVFQNGRIKQLRIKWRNEDEERRVRS,0.674
13,DEDASKQVEDFERALKTGDENRLHELMDKDARVEVGDKRYHGRKQIARQQVQHYEEMRVDLHVQDIDVQGDKIKVDVTRQIEVNGKPISNRIIIYVTIHNGKIQRMDVDVPDEDMDKIEK,0.769
14,DEEDQKRVLQEIVRMIQSGDPSQAKRLADPNATAEVGDKTYHGREKLSKYAKDLHDRVDRVHIQHYTVEGNKARIRVEVSVNGRTRQFEVKVQYHNGHITRLKVDTS,0.05
15,DEDAEREIDRLVRDNNEEDIERLMPEDAKMQVGDKTVTGRENIATQIKRLNQKADHRRIDKITLQGERVVINFTIVVNGTKFKAKIVLHAHNGKIKVVVLRARDEDLDREMSKVMN,0.028
16,DEDARSNFQELLKALQTGDERLFEKNVDPNVTFRYGDKTLTGRHHIMEQLRRDKENSRQDFDVKEWHFHGNRIDVKAQLRFEKNGKPDTVDVNLVAIAHNGRIQEIQIDVQK,-0.278
17,DEDSQAHEIAQHFIELLKHNNEDDMKKYIDPNAKAQYGDKRVHGRNHVIRTFKEMRDKVDHISVEIKSIKANGEKISADMVVTFNVNGKNETVQYVLIFQVQGERVRVTHVKID,0.796
18,DEDAVRKAIELFKQQETGNPEEVKKLADPNARMVVGDKTFTGMDTINEHLRKLRKEARIRNDIKRYEVNGDKATIEFRQERDHNGRPDTHLVKITIKVTNGRVKVIEIQDKS,0.175
19,DEDNAERVHTALDILERGNPEEVKKMFRDDVRATIGDTVIHGMTNFAHYMQRLMDHARVNITIRSWSVKNGRVEIDAEIHANHNGQPYHDRFKIKAEVTNGRFKYLQYDIDPDFLRDMTK,1.25
20,DEKRAHDFAQQVIRVIQDGDPREAQKLADENVRVEYGDRTVHGKEQISNFAQEFRTRVDHVKIDTWHAQGDKIVIHLKVNVNGREKRVVVVVEVHNGRVKSLVYKDG,1.24
21,DEERYKQLMEKAFKMIKQGNEEEARKLLKPDVEYHYADKTFRGEEAAQFIVKVVQKLGAEDHNQRQEVNGDTMKADFRYTQGDQTVQTKAEVIYKGDKATEARVEMSDEVKKVLDQG,-0.052
22,DDKKQQNMAKHFADAIRRGDPKTFSDLADPNVTAQYGDKSIHGKDEMREFWKQYHDRVDSVDVEKFSVRGDKIDIKMRAVVDGKDRVLDLDIQLHNGRATHIKVNPDQVREMDK,1.38
23,DEDHNRRLAHTIVEILRTGDPDKMNEQLDPNARAHYGDHEIHGRENVAKMVKELHDRVDHFTVKTYDADGDHITIELVMKVNGRNVEMTVVVRVRNGRLVDLRYRYTSEEQEKTEKE,2.12
24,DETAQEQAKKLFQARQTNDPDKVNNLLDENARVNIGDTSVQGREDASKEVERQHRESHQSVELKEVKVDGDHVELHYVLTKQENGKPDSNKASMNVQIHNGKAQDVQIQTSK,-0.35
25,DERENQENVEEMNRVLQSGDEDRMKELVDPNATAVVGEKRVHGRETIKDEIRRFKDHADHITVERVTAKGNSAIIDIVYNVNGRETTIIVIANVHNGKIRHLHFQKS,0.301

row,Sequence,protease stability score
1,EEERDKFAKILLHAILTGNEEQFKRLADPNATFNIGDRKIHGMERYTKQMKQEVDRIKIKVESVKISVSGNKITIDMVATFNVNGQPVTIRFVLDVTIKNGRVSELVLRVSDEQLQKMRR,0.308
2,DEENRHVAQELVKAEKSGDPKRAQELLDPNVRINVGDKTVQGREQHTQELEREKRELRIRIKSMHLKVEGDHVRIEATVSKTQDGQPRESKRSISIHMKNGKAKNIQVTYHK,0.13
3,DEEKNTRLIKEFMEALRTGDEHQVRRLMDPNAKVVYGDTRFHGREEAAKFIVEWASRIDHIDVKDMRVNGNRASLTFVANFDGRNHDVKIDFTLQDGKFRQVNFTSN,1.09
4,DEEEHAKQFLDKMHRAFENNNKDEVRKLADENARFEYGDKTYHGDEEFAKWMREIRERVDRVEMDLRSIEREGEKLNIRFEVKYKHNGNSDTQRWVFVIKHHNGDYVIEKLREQ,1.22
5,DDSLLDKVKEIFSVMRTGDPDKMKKLADKHATFEVGDKQIHGREELSEIMRRRRDEQKVSVEVKRVKKQGDTANIVFTVTNNHNGTPKVETQTMTVNMSNGKITYVNVQNDK,-0.007
6,EDRDKVRRAIKRMLDVMSTGDEDKLREYADENVKINVGDKDVHGREEAARFLKTHADQYDHIDQRIQDVKKENGQVEVRREMEATHNGHTHRDREHIVVEIRGDNMKIKSIQRQ,-0.409
7,DEEDIARQLAEDFRKVLENGDPDEMRKNADKDARLKVGDKQVHGRDEMVKYFEKLNKEYDRVHIHIKSVSAQGDKLRVEIQVVWNSNGKNDKTTYDLVFQHDDGHVKLLEIRES,0.539
8,DEEVEDLYQKIKRAQETGDHKQLRDNFDEEVRIKVGDKTIHGMTRAAKKITREWRHINIDVKVEHVQISNGRLRVRYRFVENDNGKPKTTAANFSMEAHNGRVKHVHVQDDS,0.112
9,ERERNQKLAEIFAQAVETGDPEQAQKMAPPDVKAQVGDHQFRGREEIHKMIETIRRRADHARLKDMTVDGDKITIVVQFNVNGKEVNVVFHITVRNGVATEIELRSK,1.26
10,DDDALRRAKEMDDQIKNGNEHEYQKMVDPNAREHIGDTTYSGRENLVKLVRDRRRHMREKVDITEMESSGDKLRIVYRAEQEHNGQPRKKRRRKVIRLSNGRVQEVKVVDDQ,0.4
11,DDKERDHLRKLMEEGDFTEIAENADPNAKFVIGDKEIHGREQFQTVAKRRQERVDHFDVKRVSVSGNKVRATMVMVVDGEKIHFTVIIEIDNGRVKSVRLQYRDETVKRQIEEAMS,-0.213
12,DREEKVREALETLQKAFRTGDPRLFVEQLDPNVRIEVGDKTVHGREQASEWAKRMRDKFDHFEVKIHDMSVQGDKFSVKVSLRQDVNGTDVQRDNHYTIVFHNGRVHVQNINNK,0.644
13,DEEDDKKMAETLKRLHNTGNPDELLKHFDPDAKFQIGEKTVHGREQAQEFMKRIKDRVDHQSVDSIHAHNGQVNVQVKVEINGKTRVVDIVYHFHNGRFKQVVFDPRAIRRMKS,0.175
14,DEDKMLKIAQEMAEAVVNGNVEQMKKQAHEGVQVHVGDEEVHGPDQLEEYVKKFKDQGVEVHYKETEHKGDTVTLKTTAVLGDAQVEFEAHYVVKGDKLQRFEVKLNKEQLKDFRKS,0.242
15,DEEAHEVIDTLRKAQETGDRNTARSLIDPNATFQVGDNVIRGREEYVRDLVRHRDQIRVELKHLSQTFSNGKMRMTQEAVYDINGRPDRVEFTASATIHNGRVKHMTVQVPPEQVKRLER,-0.181
16,DEEFRHKVAKALQSNNEHQLHELMDKDAKMTIGDKTVHGREEIHRVLRRLREQADHWHVSRFKIHNGKIVADVQVHINGQTYHMTITAFARGDRIERLEYTVRDEDLLRKIQRWLG,1.97
17,DEEWEETMTRLVKTGDFQSLVRLAPEDVKYVVGEKRIHGREHASEFAKKLTEQIDRIQVKEMHVSGDRVRADFELEFNGRKLKAVLVVKIHGDKVREVMIEVTDEHDEDILREIDD,0.8
18,DEQAMSVAEELISALNTGNEDQVDRLMDPNAHLQVGDKRLHGREEVRRHVKTLKDQARFDMKVDSLRVQGEKVRLDATYTFEVNGRPREDRVIIDMTLTNGTVKRIRFNFDPDDWRKMEG,1.04
19,DEEEVTKVVKKLRENDRDSQRDLFDKDVRVKIGDKNVHGREQAVTFWDRFLNSVDRYHVDSVEIDGDQIKIDARAVVNGRKVRYVVVYTVRNGRIKEASVHFTNEDEEKEFEKNVG,1.28
20,DTEDNHKLREVIRTNNPQEIREMMDPNVKVRYGNKEIEGRDQAVKHEQDLQHRADRVKIEDMRVHGDKLVVVWSINIDGSEFRFSFEARIHNGKVKFAQIQFTDPDLERKFDDMLQ,0.324
21,DEEREEQARKLLRAEEQGDPDRAKQMMDPNARVQVGNKRVHGRSEIATQLEKRKRRARYEIKHVTIRARGNRVDVKINVQVVVNGRPHHFTYIMHLTFQGDKAKNATVRIDEDTLRQVDS,0.171
22,DEDKEDRVVKTFLTAVRTGDPHTARNMLDENARVHIGEKNFHGKERASEAIKEFRDQVDEVHIRTIKVRGDRFNIDMTLHFNGKNADLTVNVRVHNGKIQDVQFDPDQMQHLQG,0.86
23,DEEVRHVAEEHFRAFSDNDPDRAKQLADPNARFQYGDREIHGMEDFVKHLETLKRDMRIQIHIKSMDVHNGRVDVTFNLMAHVNGQPFRIEVRATFEAHNGHLVEVQYRFDKKWQKTLES,0.861
24,DEEEAEKILEKLVKAVENGDETKLMQLGADGVRYKVGDREDHGPEAIQKAMQYLKRYGVRVEFKEVKHKGDRVTTVAEYENGDKRNTVTIHAHAKGGKIDEVQVNVDEDLVKFIKHG,0.266
25,DEQNQIKKIADDLETAARTNDPDKLLNMVDPNAKITYGDEEVHGRREAKRWLKEVNDHVDHMHVDIKRVHASGDKFTLRYRLVLVQNGKKDTTRVVATLRRTDGRVQIQSIDSG,0.033
